Laboratory results from publication PMC10419011.

Columns and labels:
[1] = target: Nluc-Y1R-eYFP_N1 C113^3.25A (human) (UniProt P25929); assay: FRET or BRET; NanoBRET ligand binding: membrane preparations of HEK293 cells with Nluc-Y1/2R-eYFP, TAMRA-labeled peptide titrated, 10 min at room temperature, HBSS with 20 mM HEPES pH 7.4, 0.1% BSA; unspecific binding (excess unlabeled NPY or antagonist) subtracted; biphasic fit
[2] = target: Nluc-Y2R-eYFP_N1 (wild-type neuropeptide Y2 receptor) (human) (UniProt P49146); assay: as above
[3] = target: FLAG-CRF1R-eGFP_N1 (wild-type corticotropin-releasing factor receptor 1, R2 isoform) (human (by the printed accession)) (UniProt P34998); assay: FRET or BRET; arrestin recruitment in live HEK293 cells: Nluc-arr3 (donor) and FLAG-CRF1R-eGFP (acceptor), stimulated with CRF (up to 10 µM)
[4] = target: FLAG-CRF1R-eGFP_N1 C188^3.29A (human (by the printed accession)) (UniProt P34998); assay: as above
[5] = target: MOR-eYFP_pVitro2 (wild-type µ-type opioid receptor) (UniProt P35372); assay: FRET or BRET; arrestin recruitment in live HEK293 cells: Nluc-arr3 (donor) and MOR-eYFP (acceptor), stimulated with β-endorphin (0.01 nM to 10 µM)
[6] = target: MOR-eYFP_pVitro2 (wild-type µ-type opioid receptor) (UniProt P35372); assay: FRET or BRET; arrestin recruitment in live HEK293 cells: Nluc-arr3 (donor) and MOR-eYFP (acceptor), stimulated with endomorphin-1 (0.01 nM to 10 µM)
[7] = target: AT1R-eYFP_N1 (wild-type angiotensin II type 1 receptor) (UniProt P30556); assay: FRET or BRET; arrestin recruitment in live HEK293 cells: Nluc-arr3 (donor) and AT1R-eYFP (acceptor), stimulated with agonist peptide (angiotensin II; 0.01 nM to 10 µM)
[8] = target: HA-Y2R-eYFP_N1 (wild-type neuropeptide Y2 receptor) (human) (UniProt P49146); assay: FRET or BRET; arrestin recruitment in live HEK293 cells: Nluc-arr3 (donor) and receptor-eYFP (acceptor) co-transfected, stimulated with NPY (0.01 nM to 10 µM), HBSS with 20 mM HEPES pH 7.4, read 5, 10 and 15 min after stimulation
[9] = target: Y1R-eYFP_N1 (wild-type neuropeptide Y1 receptor) (human) (UniProt P25929); assay: as above
[10] = target: HA-Y2R-eYFP_N1 C123^3.25A (human) (UniProt P49146)
[11] = target: HA-Y2R-eYFP_N1 C203^45.50A (human) (UniProt P49146)
[12] = target: Y1R-eYFP_N1 C113^3.25A (human) (UniProt P25929)
[13] = target: Y1R-eYFP_N1 C198^45.50A (human) (UniProt P25929)
Sequence of Y1R-eYFP_N1 C198^45.50A (human) (P25929 whole entry C198A): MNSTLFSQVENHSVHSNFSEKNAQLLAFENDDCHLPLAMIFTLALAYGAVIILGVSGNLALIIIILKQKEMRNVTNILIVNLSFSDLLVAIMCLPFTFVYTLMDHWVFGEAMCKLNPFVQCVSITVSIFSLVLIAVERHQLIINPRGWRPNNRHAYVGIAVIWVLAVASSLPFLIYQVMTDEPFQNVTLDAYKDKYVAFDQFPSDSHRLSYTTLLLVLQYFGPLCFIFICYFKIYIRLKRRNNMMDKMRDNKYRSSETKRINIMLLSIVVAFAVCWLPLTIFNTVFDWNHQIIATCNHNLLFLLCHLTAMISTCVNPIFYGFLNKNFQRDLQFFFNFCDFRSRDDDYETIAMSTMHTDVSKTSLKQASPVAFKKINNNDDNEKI

Sequence of Nluc-tagged bovine arrestin3 (P32120 whole entry): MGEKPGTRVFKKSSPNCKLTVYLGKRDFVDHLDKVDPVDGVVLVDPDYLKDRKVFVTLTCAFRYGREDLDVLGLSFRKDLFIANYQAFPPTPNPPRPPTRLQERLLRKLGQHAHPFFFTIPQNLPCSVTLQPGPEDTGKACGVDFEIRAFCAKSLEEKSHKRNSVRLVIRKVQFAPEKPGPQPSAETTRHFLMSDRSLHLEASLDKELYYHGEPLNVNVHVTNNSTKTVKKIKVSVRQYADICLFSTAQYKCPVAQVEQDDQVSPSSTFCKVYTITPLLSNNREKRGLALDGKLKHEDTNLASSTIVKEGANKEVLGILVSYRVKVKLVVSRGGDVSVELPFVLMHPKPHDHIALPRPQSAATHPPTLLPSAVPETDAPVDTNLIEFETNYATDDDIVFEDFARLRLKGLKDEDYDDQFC
Sequence of FLAG-CRF1R-eGFP_N1 C188^3.29A (human (by the printed accession)) (P34998 24-415 C188A): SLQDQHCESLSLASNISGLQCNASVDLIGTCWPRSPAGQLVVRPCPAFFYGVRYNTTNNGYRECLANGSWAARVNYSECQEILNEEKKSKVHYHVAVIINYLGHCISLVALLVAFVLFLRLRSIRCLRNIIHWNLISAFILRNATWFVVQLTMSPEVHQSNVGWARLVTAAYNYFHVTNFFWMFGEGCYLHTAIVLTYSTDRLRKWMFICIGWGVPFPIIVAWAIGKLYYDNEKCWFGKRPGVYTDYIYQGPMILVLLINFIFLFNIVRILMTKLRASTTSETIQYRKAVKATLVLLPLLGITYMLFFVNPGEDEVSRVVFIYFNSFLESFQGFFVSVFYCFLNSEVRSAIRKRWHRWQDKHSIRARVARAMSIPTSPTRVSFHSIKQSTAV
Sequence of Nluc-Y1R-eYFP_N1 C113^3.25A (human) (P25929 whole entry C113A): as the sequence (P25929 whole entry C198A) above, with C113A, A198C counted along it
Sequence of Y1R-eYFP_N1 C113^3.25A (human) (P25929 whole entry C113A): as the sequence (P25929 whole entry C198A) above, with C113A, A198C counted along it
Sequence of Y1R-eYFP_N1 (wild-type neuropeptide Y1 receptor) (human) (P25929 whole entry): as the sequence (P25929 whole entry C198A) above, with A198C counted along it
Sequence of FLAG-CRF1R-eGFP_N1 (wild-type corticotropin-releasing factor receptor 1, R2 isoform) (human (by the printed accession)) (P34998 24-415): as the sequence (P34998 24-415 C188A) above, with A165C counted along it
Sequence of AT1R-eYFP_N1 (wild-type angiotensin II type 1 receptor) (P30556 whole entry): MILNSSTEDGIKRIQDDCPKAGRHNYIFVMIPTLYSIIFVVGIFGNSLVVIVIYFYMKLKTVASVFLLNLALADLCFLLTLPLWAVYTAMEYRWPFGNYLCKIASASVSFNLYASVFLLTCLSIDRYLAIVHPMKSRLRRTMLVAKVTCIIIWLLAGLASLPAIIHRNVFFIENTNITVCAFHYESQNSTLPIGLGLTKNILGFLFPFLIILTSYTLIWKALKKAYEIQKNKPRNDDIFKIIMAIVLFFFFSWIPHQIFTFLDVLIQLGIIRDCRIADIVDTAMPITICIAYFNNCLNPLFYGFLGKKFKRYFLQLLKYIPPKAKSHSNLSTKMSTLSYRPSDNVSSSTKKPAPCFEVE

## K^18-TAMRA-NPY (peptide)
[1]
  fold shift in Kd against wild-type Y1R: 7 fold
[2]
  Kd of the high-affinity state: 2.3 nM
  Kd of the low-affinity state: 267 nM

## Nluc-tagged bovine arrestin3 (from UniProt P32120 1-420) (natural protein)
[3]
  EC50 of the agonist CRF for arrestin3 recruitment: 37 nM
[4]
  fold shift in the agonist's EC50 for arrestin3 recruitment against wild-type CRF1R: 8 fold
[5]
  EC50 of the agonist β-endorphin for arrestin3 recruitment: > 3000 nM
[6]
  EC50 of the agonist endomorphin-1 for arrestin3 recruitment: 375 nM
[7]
  EC50 of the agonist for arrestin3 recruitment: 3.6 nM
[8]
  EC50 of the agonist NPY for arrestin3 recruitment: 96 nM
[9]
  EC50 of the agonist NPY for arrestin3 recruitment: 8 nM

## neuropeptide Y (NPY) (from UniProt P01303 29-64)
[10]
  cAMP reporter gene assay (Gi/o pathway): shift of the EC50 of NPY against wild-type Y2R; full activation at 10 µM NPY: 10000 fold
[11]
  cAMP reporter gene assay (Gi/o pathway): shift of the EC50 of NPY against wild-type Y2R; full activation at 10 µM NPY: 10000 fold
[12]
  inositol monophosphate accumulation via chimeric G-protein: shift of EC50 against wild-type Y1R (41% loss of Emax): 26 fold
[13]
  inositol monophosphate accumulation via chimeric G-protein: shift of EC50 against wild-type Y1R (57% loss of Emax): 50 fold
